# From the Human Domainome abundance scans (Beltran et al. 2025)
# ± gives the uncertainty stated by the source.
# B1: SAM and SH3 domain-containing protein 1, residues 630 to 700; numbered along this chain, O94885 (parent)
# chain: GRPPQPKSVEDLLDRINLKEHMPTFLFNGYEDLDTFKLLEEEDLDELNIRDPEHRAVLLTAVELLQEYDSN
# B2: Proto-oncogene vav, residues 782 to 842; numbered along this chain, P15498 (parent)
# chain: KYFGTAKARYDFCARDRSELSLKEGDIIKILNKKGQQGWWRGEIYGRVGWFPANYVEEDYS
# Variants of: B1
# Assay: abundance fitness (aPCA) (normalised: wild type 0, dead -1); higher = more abundant; growth selection in yeast, the domain comes from the species named
# Details: Homo sapiens
row,Variant,abundance fitness
1,GRPPQPKSVEDLLDRINLKEHMPTFLFNGYEDLDTFKLLEEEDLDELNIRDPEHRAVLLTAVEPLQEYDSN [L64P],-0.595 ± 0.057
2,GRPPQPKSVEDLLDRINLKEHMPTFLFNGYEDLDTFKLLEEEDLDELNIRDPEHRANLLTAVELLQEYDSN [V57N],0.15 ± 0.048
3,GRPPQPKSVEDLLDRINLKEHMPTFLFNGYEDLDTFKLLEEEDLDELNIRDPEHRAELLTAVELLQEYDSN [V57E],0.196 ± 0.049
4,GRPPQPKSVEDLLDRINLKEHMPTFLFNGYEDLDTFKLLEEEDLMELNIRDPEHRAVLLTAVELLQEYDSN [D45M],-0.247 ± 0.051
5,GRPPQPKSVEDLLDRINLKEHMPTFLFNGYEDLPTFKLLEEEDLDELNIRDPEHRAVLLTAVELLQEYDSN [D34P],-0.664 ± 0.056
6,GRPPQPKSVEDLLDRINLKEHMPTFLFNGYEDLRTFKLLEEEDLDELNIRDPEHRAVLLTAVELLQEYDSN [D34R],-0.465 ± 0.045
7,GRPPQPKSVEDLLDRINLKEHMPTFLFNGYEDLLTFKLLEEEDLDELNIRDPEHRAVLLTAVELLQEYDSN [D34L],-0.67 ± 0.045
8,GRPPQPKSVEDLLDRINLKEHMPTFLQNGYEDLDTFKLLEEEDLDELNIRDPEHRAVLLTAVELLQEYDSN [F27Q],0.393 ± 0.043
9,GRPPQPKSVEDLLDRINLKEHMPTVLFNGYEDLDTFKLLEEEDLDELNIRDPEHRAVLLTAVELLQEYDSN [F25V],-0.758 ± 0.063
10,GRPPQPKSVEDLLDRINLKEHMPTFLFNGYEDLDTFKLLEEEDLDEMNIRDPEHRAVLLTAVELLQEYDSN [L47M],0.017 ± 0.048
11,GRPPQPKSVEDLLDRINLKEHMPTFLFNGDEDLDTFKLLEEEDLDELNIRDPEHRAVLLTAVELLQEYDSN [Y30D],-0.705 ± 0.077
12,GRPPQPKSVEDLLDRINLKEHMPTFLFNGKEDLDTFKLLEEEDLDELNIRDPEHRAVLLTAVELLQEYDSN [Y30K],-0.901 ± 0.099
13,GRPPQPKSVEDLLDRINLKEHMPTFLFNGYEDLDTFKLLEEESLDELNIRDPEHRAVLLTAVELLQEYDSN [D43S],-0.359 ± 0.039
14,GRPPQPKRVEDLLDRINLKEHMPTFLFNGYEDLDTFKLLEEEDLDELNIRDPEHRAVLLTAVELLQEYDSN [S8R],-0.836 ± 0.082
15,GRPPQPKSVEDLLDRINLKEHMPTFLFNGYEDLDTFKLLEEEDLDELNIRDPEHRAVLLTAVELLQEKDSN [Y68K],0.054 ± 0.056
16,GRPPQPKSVQDLLDRINLKEHMPTFLFNGYEDLDTFKLLEEEDLDELNIRDPEHRAVLLTAVELLQEYDSN [E10Q],-0.445 ± 0.066
17,GRPPQPKSVIDLLDRINLKEHMPTFLFNGYEDLDTFKLLEEEDLDELNIRDPEHRAVLLTAVELLQEYDSN [E10I],-0.446 ± 0.056
18,GRPPQPKSVEDLLDRINLKEHMPSFLFNGYEDLDTFKLLEEEDLDELNIRDPEHRAVLLTAVELLQEYDSN [T24S],-0.464 ± 0.044
19,GRPPQPKSVEDLLDRINLKEHMPEFLFNGYEDLDTFKLLEEEDLDELNIRDPEHRAVLLTAVELLQEYDSN [T24E],-0.435 ± 0.077
20,GRPPQPKSVEDLLDRINLKEHMPTFLFNGYEDLDTFKLLEEEDLDELNIRDPEHRRVLLTAVELLQEYDSN [A56R],0.191 ± 0.034

row,Variant,abundance fitness
1,GRPPQPQSVEDLLDRINLKEHMPTFLFNGYEDLDTFKLLEEEDLDELNIRDPEHRAVLLTAVELLQEYDSN [K7Q],-0.119 ± 0.067
2,GRPAQPKSVEDLLDRINLKEHMPTFLFNGYEDLDTFKLLEEEDLDELNIRDPEHRAVLLTAVELLQEYDSN [P4A],0.046 ± 0.051
3,GRPWQPKSVEDLLDRINLKEHMPTFLFNGYEDLDTFKLLEEEDLDELNIRDPEHRAVLLTAVELLQEYDSN [P4W],-0.008 ± 0.065
4,GRPIQPKSVEDLLDRINLKEHMPTFLFNGYEDLDTFKLLEEEDLDELNIRDPEHRAVLLTAVELLQEYDSN [P4I],0.058 ± 0.057
5,GRPPQPKSVEDLLDRINLKEHMPTFLFNGYEDLDTFKLLEEEDLDELNIRDPEHRAVLLTAVELLQEYVSN [D69V],-0.971 ± 0.086
6,GRPPQPKSVEDLLDRINLKEHLPTFLFNGYEDLDTFKLLEEEDLDELNIRDPEHRAVLLTAVELLQEYDSN [M22L],0.377 ± 0.032
7,GRPPQPKSVEDPLDRINLKEHMPTFLFNGYEDLDTFKLLEEEDLDELNIRDPEHRAVLLTAVELLQEYDSN [L12P],-0.916 ± 0.093
8,GRPPQPKSVEDLLDRINLKEHMPTFLFNGYEDLDTFKLLEEEDLDELNIRDPEHRAVLLTAVELNQEYDSN [L65N],-0.841 ± 0.082
9,GRPPQPKSVEDLLDRINLKEHMPTFLFNGYEDLDTFKLLEEEDLDELNIRDPEHRAVLLTAVELLWEYDSN [Q66W],-0.21 ± 0.061
10,YRPPQPKSVEDLLDRINLKEHMPTFLFNGYEDLDTFKLLEEEDLDELNIRDPEHRAVLLTAVELLQEYDSN [G1Y],0.098 ± 0.075
11,GRPPQPKSVEDLLDRINLKEDMPTFLFNGYEDLDTFKLLEEEDLDELNIRDPEHRAVLLTAVELLQEYDSN [H21D],-0.889 ± 0.097
12,GRPPQPKSVEDLLDRINLMEHMPTFLFNGYEDLDTFKLLEEEDLDELNIRDPEHRAVLLTAVELLQEYDSN [K19M],-0.058 ± 0.043
13,GRPPQPKSVEDLLDRINLKEHMPTFWFNGYEDLDTFKLLEEEDLDELNIRDPEHRAVLLTAVELLQEYDSN [L26W],-0.533 ± 0.064
14,GRPPQPKSVEDLLQRINLKEHMPTFLFNGYEDLDTFKLLEEEDLDELNIRDPEHRAVLLTAVELLQEYDSN [D14Q],-0.269 ± 0.07
15,GRPPQPKSVEDLLDRINLKEHMATFLFNGYEDLDTFKLLEEEDLDELNIRDPEHRAVLLTAVELLQEYDSN [P23A],0.113 ± 0.043
16,GRPPQPKSVEDLLDGINLKEHMPTFLFNGYEDLDTFKLLEEEDLDELNIRDPEHRAVLLTAVELLQEYDSN [R15G],-0.342 ± 0.049
17,GRPPQPKSVEDLLDRNNLKEHMPTFLFNGYEDLDTFKLLEEEDLDELNIRDPEHRAVLLTAVELLQEYDSN [I16N],-0.326 ± 0.067
18,GRPPQPKSVEDLLDRILLKEHMPTFLFNGYEDLDTFKLLEEEDLDELNIRDPEHRAVLLTAVELLQEYDSN [N17L],-0.891 ± 0.059
19,GRPPQPKSVEDLLDRIPLKEHMPTFLFNGYEDLDTFKLLEEEDLDELNIRDPEHRAVLLTAVELLQEYDSN [N17P],-1.08 ± 0.094
20,GRPPQPKSVEDLLDRINLKEHMPTFLFNGYEDPDTFKLLEEEDLDELNIRDPEHRAVLLTAVELLQEYDSN [L33P],-0.896 ± 0.095

# Variants of: B2
# Assay: as above
# Details: Homo sapiens
row,Variant,abundance fitness
1,KYHGTAKARYDFCARDRSELSLKEGDIIKILNKKGQQGWWRGEIYGRVGWFPANYVEEDYS [F3H],-0.396 ± 0.13
